Here are results for 2 molecules from patent publication US20190241648A1 (STATEN BIOTECHNOLOGY B V, published 2019).

This experiment concerns the target T1, human ApoC3 (huApoC3), native protein purified from human serum (human, UniProt P02656 21-99).
T1 construct: Athens Research and Technology; randomly biotinylated in some assays; also called Apolipoprotein C3
Put plainly: ELISA, biotinylated huApoC3 captured on neutravidin, scFv periplasmic extract. The procedure:
The antibody clones selected from the scFv phage display library constructed in Example 1 were analyzed by a ELISA assay with biotinylated ApoC3 captured by […] which was coated on plates. Neutravidin (Fisher Scientific LDAcat#: W9995L) diluted in PBS (pH 7.4) at a concentration of 2-5 μg/ml (100 μl/well) was incubated in Microtiter Immunoassay Maxisorp 96-well plates (NUNC cat#:1456537 or similar) at 4° C. overnight. The coated plates were washed three times with 250 μl/well PBS-T to remove the excess of the unbound neutravidin. After washing, 250 μl 1% (m/v) of casein solution prepared in PBS was added to each coated well for blocking, and the plates were incubated for 1 to 2 hours at room temperature on a plate shaker (TitraMax 1000, Heidolph or similar). After blocking, the plates were washed three times to remove the excess of the blocking solution with 250 μl/well PBS-T. Biotin groups were introduced at random sites of human native ApoC3 protein (Athens Research and Technology). […] The absorbance of the end-product is measured at 450 nm using a Microplate spectrophotometer.

T1 sequence (P02656 21-99): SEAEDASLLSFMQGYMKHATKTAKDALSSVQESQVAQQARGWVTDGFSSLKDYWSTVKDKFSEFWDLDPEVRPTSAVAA

B1: 12G8 scFv (scFv, V domains shown)
VH: QLQLVESGGGLVQPGGSLRLSCAASGFTFDDYAMSWVRQAPGKGLEWVSAIRWNGDTYYAESMKGRFDMSRDNAKNTLYLQMNSLKSEDTAVYYCAKHRPGGALDTWGQGTLVTVSS
VL: QAVLTQPSAVSVSLGQTARITCQGGNFGNFYASWYQQKPGQAPVLVIYKDSERPSGIPERFSGSSSGDTATLTISGAQAEDEADYYCQSGSSSDNVVFGGGTHLTVL
notes: scFv (crude periplasmic extract) with C-terminal c-myc tag
Take B1: the binding result is “binds”.

B2: 12D7 scFv (scFv, V domains shown)
VH: ELQLVESGGDLVQPGGSLRLSCAASGFTFDDYAMSWVRQAPGKGLEWVSAITSNGKRTDYAESMKGRFTISRDNSKNTLYLEMNSLKSEDTAVYYCTKGPPHYIPIPSMTPRDSWGQGTQVTVSS
VL: SSALTQPSAVSVSLGQTARITCQGGTLGRYYGSWYQQKPAQAPVLLIYGDNSRPSGIPERFSGSKSGDTATLTISGTQAEDEADYYCESFDFSGNAAVFGGGTHLTVL
notes: as for B1
B2: the binding result was “binds”.
